These results are taken from US20230331827A1, “POTASSIUM CHANNEL INHIBITORS” (priority 2017, published 2023).

In experiment [1] the target is human Kv1.3 (human) (UniProt P22001). Description: cell-based or functional assay.
A further experiment deals with β-galactosidase. Description: phage TRF on β-galactosidase.
Experiment [2] deals with trypsin. Put plainly: TRF, 2.4 ug/mL Fab on trypsin.
Experiment [3] deals with trypsin. Description: TRF, 10 ug/mL Fab on trypsin.
In experiment [4] the target is trypsin. Description: TRF, 0.6 ug/mL Fab on trypsin.
Experiment [5] addresses human Kv1.3 (human) (UniProt P22001). Put plainly: cell-based or functional assay. This is another data set of the same source.
A further experiment addresses human Kv1.1 (human) (UniProt Q09470). Description: cell-based or functional assay.

Substitutions are numbered along the chain they refer to. Names and notes keep the numbering of the source.

human Kv1.3 (human), sequence (P22001 whole entry): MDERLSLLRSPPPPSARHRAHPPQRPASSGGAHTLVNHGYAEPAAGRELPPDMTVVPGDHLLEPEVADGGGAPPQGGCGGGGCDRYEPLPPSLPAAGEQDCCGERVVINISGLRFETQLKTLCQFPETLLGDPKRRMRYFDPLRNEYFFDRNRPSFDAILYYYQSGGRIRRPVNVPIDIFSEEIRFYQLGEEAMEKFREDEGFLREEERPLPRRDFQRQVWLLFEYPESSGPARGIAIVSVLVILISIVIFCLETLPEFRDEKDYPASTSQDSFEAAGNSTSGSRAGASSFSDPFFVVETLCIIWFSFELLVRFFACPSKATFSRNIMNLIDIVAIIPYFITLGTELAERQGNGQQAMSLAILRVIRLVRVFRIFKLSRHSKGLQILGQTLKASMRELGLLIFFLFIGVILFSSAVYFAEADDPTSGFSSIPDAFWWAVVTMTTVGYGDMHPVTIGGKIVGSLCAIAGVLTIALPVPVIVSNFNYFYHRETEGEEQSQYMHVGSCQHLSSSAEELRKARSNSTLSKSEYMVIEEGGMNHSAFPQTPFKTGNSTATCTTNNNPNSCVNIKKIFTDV
β-galactosidase, sequence (P00722 2-1024): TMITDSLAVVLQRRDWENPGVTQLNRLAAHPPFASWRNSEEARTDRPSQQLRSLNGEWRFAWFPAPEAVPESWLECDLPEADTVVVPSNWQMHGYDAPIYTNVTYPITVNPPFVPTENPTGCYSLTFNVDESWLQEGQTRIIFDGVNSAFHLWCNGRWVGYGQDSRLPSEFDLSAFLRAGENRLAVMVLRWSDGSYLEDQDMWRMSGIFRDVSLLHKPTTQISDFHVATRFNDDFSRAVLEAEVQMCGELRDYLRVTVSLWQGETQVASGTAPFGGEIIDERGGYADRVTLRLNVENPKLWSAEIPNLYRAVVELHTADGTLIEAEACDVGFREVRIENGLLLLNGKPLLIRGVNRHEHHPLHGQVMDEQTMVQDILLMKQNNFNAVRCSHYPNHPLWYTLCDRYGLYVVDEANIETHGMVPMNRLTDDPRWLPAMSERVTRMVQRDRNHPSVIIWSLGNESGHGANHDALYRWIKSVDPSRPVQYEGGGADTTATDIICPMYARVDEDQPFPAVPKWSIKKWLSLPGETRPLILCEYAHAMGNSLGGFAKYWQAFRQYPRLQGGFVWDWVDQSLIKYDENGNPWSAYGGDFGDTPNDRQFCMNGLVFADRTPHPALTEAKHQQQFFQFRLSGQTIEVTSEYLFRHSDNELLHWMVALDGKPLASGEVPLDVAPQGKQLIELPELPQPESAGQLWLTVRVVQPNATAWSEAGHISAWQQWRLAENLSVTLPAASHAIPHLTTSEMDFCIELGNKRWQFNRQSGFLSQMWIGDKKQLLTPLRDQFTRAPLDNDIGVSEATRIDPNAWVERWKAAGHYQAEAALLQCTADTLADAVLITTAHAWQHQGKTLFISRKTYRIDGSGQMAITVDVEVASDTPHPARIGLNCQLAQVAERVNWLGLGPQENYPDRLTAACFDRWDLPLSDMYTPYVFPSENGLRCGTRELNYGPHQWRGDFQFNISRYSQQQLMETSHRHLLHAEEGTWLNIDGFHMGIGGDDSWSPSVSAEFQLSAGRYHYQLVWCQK
human Kv1.1 (human), sequence (Q09470 whole entry): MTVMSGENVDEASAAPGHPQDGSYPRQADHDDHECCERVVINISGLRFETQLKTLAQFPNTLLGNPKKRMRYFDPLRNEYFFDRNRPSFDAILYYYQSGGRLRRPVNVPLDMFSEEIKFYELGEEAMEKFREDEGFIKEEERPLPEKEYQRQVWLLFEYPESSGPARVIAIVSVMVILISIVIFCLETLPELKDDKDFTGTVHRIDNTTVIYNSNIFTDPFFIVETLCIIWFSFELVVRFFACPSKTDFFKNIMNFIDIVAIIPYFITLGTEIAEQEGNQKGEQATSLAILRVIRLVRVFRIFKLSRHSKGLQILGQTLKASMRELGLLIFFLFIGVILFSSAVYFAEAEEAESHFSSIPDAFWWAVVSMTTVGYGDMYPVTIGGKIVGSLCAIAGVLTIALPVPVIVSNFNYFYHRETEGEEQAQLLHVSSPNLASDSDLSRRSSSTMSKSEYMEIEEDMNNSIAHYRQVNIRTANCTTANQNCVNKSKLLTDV

B1: KB_A07_HsTx1 (antibody, V domains shown)
VH: EVQLVESGGGLVRPGGSLRLSCAASGFTFSSYAMSWVRQAPGKGLEWVSAISGSGGSTYYADSVKGRFTISRDNTKNSLYLQMTSLRADDTAFYYCVKDFGPGYGTGWFDYWGPGTLVTVSS
VL: NWYQQKPGKAPKLLIYAAGVASCRTPKDCADPCRKETGCPYGKCMNRKCKCNRCSRSGVPSRFSGSGSGTDFTLTISSLQPEDFATYYCQQGASPPYTFGQGTKVEIKR
For B1, the IC50, huKv1.3 current, QPatch patch clamp with human Kv1.3 (human) [1] worked out at 4.7 nM.

B2: KB_A12_B-gal_H03 (scFv, V domains shown)
VH: B1 VH
VL: AVNWYQQLPGKAPKLLIYAAGRCNQTMSIRRPCKQDSDCLAGCVCGPNGFCGANSGVSDRFSAAKSGTSASLAINGLRSEDEADYYCAAWDDSLNGYVFGTGTKLTVLG
In the experiment with β-galactosidase, B2 displayed a TRF signal of 518000.

B3: KB_A12_ADWX1 (antibody, V domains shown)
VH: B1 VH
VL: QSVLTQPPSVSEAPRQRVTITCSGSSSNIGNNAVNWYQQLPGKAPKLLIYAAGRVGINVKCKHSRQCLKPCKDAGMRFGKCTNGKCHCTPKANSGVSDRFSAAKSGTSASLAINGLRSEDEADYYCAAWDDSLNGYVFGTGTKLTVLG
Molecule B3 displayed an IC50, huKv1.3 current, QPatch patch clamp with human Kv1.3 (human) [1] of 270 nM.

B4: KB_B02 Fab (Fab, V domains shown)
VH: B1 VH
VL: AVNWYQQLPGKAPKLLIYAAVGCPRILMRCKQDSDCLAGCVCGPNGFCGTGSGIPERFSGSKSGNTASLTISGLQAEDEGDYYCAAWDDSLSGPVFGGGTKLTVLG
B4: the TRF signal with trypsin [2] worked out at 15900; with trypsin [3], 56600; with trypsin [4], 2340.

B5: KB_C10 Fab (Fab, V domains shown)
VH: B1 VH
VL: AVNWYQQLPGKAPKLLIYAAGPCPRILMRCKQDSDCLAGCVCGPNGFCGADSGVSDRFSGSKSGTSASLAITGLQAEDEGDYYCAAWDDSLNGLVFGGGTKVTVLG
In the case of B5, the values for the TRF signal with trypsin [2], with trypsin [3] and with trypsin [4] were 146000, 238000 and 41700, respectively.

B6: KB_A12_B-gal_H02 (scFv, V domains shown)
VH: B1 VH
VL: B2 VL with N24E, M27S, S28V, P32H
The molecule B6 had a TRF signal with β-galactosidase of 501000.

B7: KB_C07 Fab (Fab, V domains shown)
VH: B1 VH
VL: AVNWYQQLPGKAPKLLIYAAVGCPRILMRCKQDSDCLAGCVCGPNGFCGSASGVSDRFSGSKSGTSASLAISGLRSEDEADYYCASWDDSLRGYVFGTGTKVTVLG
For the molecule B7, the TRF signal with trypsin [2] came to 247000; in the experiment with trypsin [3], 276000; in the experiment with trypsin [4] it was 153000.

B8: KB_A12_B-gal_F02 (scFv, V domains shown)
VH: B1 VH
VL: B2 VL with N24R, Q25T, M27S, S28T, P32R
In turn, B8 gave a TRF signal in the experiment with β-galactosidase of 476000.

B9: KB_A11 Fab (Fab, V domains shown)
VH: B1 VH
VL: YLNWYQQKPGKAPKLLIYAAEICPRILMRCKQDSDCLAGCVCGPNGFCGPSSGIPARFSGSGYGTDFTLTINNIESEDAAYYFCLQHDNFPYTFGQGTKVEIKR
On to B9, for which the results for the TRF signal with trypsin [2], with trypsin [3] and with trypsin [4] were 141000, 212000 and 48900, respectively.

B10: KB_A12_B-gal_H07 (scFv, V domains shown)
VH: B1 VH
VL: B2 VL with N24T, M27A, S28L, P32R
The molecule B10 displayed a TRF signal in the experiment with β-galactosidase of 62000.

B11: KB_A12_B-gal_F09 (scFv, V domains shown)
VH: B1 VH
VL: B2 VL with N24I, Q25A, M27S, S28H, P32H
With B11, in the experiment with β-galactosidase, the TRF signal was determined as 258000.

B12: KB_A07 Fab (Fab, V domains shown)
VH: B1 VH
VL: YLNWYQQKPGKAPKLLIYAAGVCPRILMRCKQDSDCLAGCVCGPNGFCGSRSGVPSRFSGSGSGTDFTLTISSLQPEDFATYYCQQGASPPYTFGQGTKVEIKR
In the case of B12, the TRF signal with trypsin [2] was 201000; with trypsin [3], 226000; with trypsin [4], 108000.

B13: KB_A12_HsTx1 R14A (antibody, V domains shown)
VH: B1 VH
VL: NWYQQLPGKAPKLLIYAAGRASCRTPKDCADPCAKETGCPYGKCMNRKCKCNRCANSGVSDRFSAAKSGTSASLAINGLRSEDEADYYCAAWDDSLNGYVFGTGTKLTVLG
As for B13, in the experiment with human Kv1.3 (human) [5], the Fold difference (Kv1.1 IC50 against Kv1.3 IC50) was > 3500 fold and the Kv1.3 IC50, QPatch patch clamp worked out at 0.9 nM. This molecule also registered a Kv1.1 IC50, QPatch patch clamp in the experiment with human Kv1.1 (human) of 2990 nM.

B14: KB_A12_B-gal_F03 (scFv, V domains shown)
VH: B1 VH
VL: B2 VL with N24L, Q25A, M27T, P32H
As for B14, the TRF signal with β-galactosidase was 289000.

B15: KB_A12_B-gal_E05 (scFv, V domains shown)
VH: B1 VH
VL: B2 VL with N24R, Q25E, M27S, I29L
On to B15, for which, in the experiment with β-galactosidase, the TRF signal is 312000.

B16: KB_C08 Fab (Fab, V domains shown)
VH: B1 VH
VL: AVNWYQQLPGKAPKLLIYAAAVCPRILMRCKQDSDCLAGCVCGPNGFCGTRSGIPERFSGSKSGTSAFLAISGLRSEDEADYYCAAWDDSLSGVVFGGGTKLTVLG
As to B16, the values for the TRF signal with trypsin [2], in the experiment with trypsin [3] and with trypsin [4] were 131000, 183000 and 51100, respectively.

B17: KB_A12_B-gal_F11 (scFv, V domains shown)
VH: B1 VH
VL: B2 VL with N24H, Q25E, M27A, S28Q, P32R
In the case of B17, the TRF signal with β-galactosidase was 531000.

B18: KB_A06 Fab (Fab, V domains shown)
VH: B1 VH
VL: AVNWYQQLPGKAPKLLIYAAVRCPRILMRCKQDSDCLAGCVCGPNGFCGTPSGIPERFSGSIDRSTNSASLTISGLKTEDEADYYCQSYDSSNLNWVFGGGTKLTVLG
As to B18, the values for the TRF signal with trypsin [2], with trypsin [3] and with trypsin [4] were 212000, 242000 and 108000, respectively.

B19: KB_A12_B-gal_E04 (scFv, V domains shown)
VH: B1 VH
VL: B2 VL with N24L, Q25A, M27T
In the experiment with β-galactosidase, B19 returned a TRF signal of 523000.

B20: KB_A09 Fab (Fab, V domains shown)
VH: B1 VH
VL: AVNWYQQLPGKAPKLLIYAAERCPRILMRCKQDSDCLAGCVCGPNGFCGTPSGVPDRFSGSIDTFSNSASLTISGLKTEDEADYYCQSYDSSHHWVFGGGTKLTVLG
Take B20: the TRF signal is 84100 with trypsin [2], 161000 in the experiment with trypsin [3] and 21000 with trypsin [4].

B21: KB_C09 Fab (Fab, V domains shown)
VH: B1 VH
VL: B20 VL with E21G, T50G, P51G, T64S, F65S, K77R, T78A, H93N
As to B21, the values for the TRF signal in the experiment with trypsin [2], with trypsin [3] and with trypsin [4] were 205000, 289000 and 46800, respectively.

B22: KB_B01 Fab (Fab, V domains shown)
VH: B1 VH
VL: B7 VL with V21A, S50T, A51R, S86A, G93A, V102L
On to B22, for which the TRF signal stood at 153000 with trypsin [2], 257000 with trypsin [3] and 54800 with trypsin [4].

B23: KB_A12_B-gal_G05 (scFv, V domains shown)
VH: B1 VH
VL: B2 VL with N24L, Q25D, M27V, S28N, I29L, P32R
For the molecule B23, in the experiment with β-galactosidase, the TRF signal was found to be 529000.

B24: KB_A12_B-gal_F07 (scFv, V domains shown)
VH: B1 VH
VL: B2 VL with N24R, Q25T, M27A, S28N, I29V, P32H
With B24, the TRF signal with β-galactosidase stood at 246000.

B25: KB_A10 Fab (Fab, V domains shown)
VH: B1 VH
VL: B4 VL with V21G, T50S, G51N, I54V, E56D, A76S, G80A, P94V, K101Q
With B25, the TRF signal with trypsin [2] worked out at 71900; with trypsin [3], 68700; with trypsin [4], 14600.

B26: KB_A05 Fab (Fab, V domains shown)
VH: EVQLVESGGGLVRPGGSLRLSCAASGFTFSSYAMSWVRQAPGKGLEWVSAISGSGGSTYYADSVKGRFTISRDNTKNSLYLQMTSLRADDTAFYYCVDFGPGYGTGWFDYWGPGTLVTVSS
VL: B16 VL with A21D, V22K, T50G, R51G, F68S, A86T, S90N, S92N
As for B26, the TRF signal worked out at 65400 with trypsin [2], 218000 with trypsin [3] and 46700 in the experiment with trypsin [4].

B27: KB_A12 Fab (Fab, V domains shown)
VH: B26 VH
VL: B7 VL with V21G, G22R, S50A, A51N, G60A, S61A, S72N, S86A, R92N, V102L
B27: the TRF signal is 222000 in the experiment with trypsin [2], 253000 with trypsin [3] and 102000 in the experiment with trypsin [4].
